Reference: article PMC12607895

Tests used:
CD46 (human) = CD46 (human) (UniProt P15529); assay: SPR; Biacore T200; CD46 or CAR amine-coupled to a CM5 chip (2,390-2,640 RU CD46, 2,380-2,870 RU CAR); whole virions as analyte, twofold series 50-12.5 µg/mL, 120 s at 30 µL/min; 25°C, HBS-EP+ (10 mM HEPES, 150 mM NaCl, 3 mM EDTA, 0.005% P20, pH 7.4); performed once
[1] = target: coxsackievirus and adenovirus receptor (CAR) (UniProt P78310); assay: as above
Sequence of coxsackievirus and adenovirus receptor (CAR) (P78310 20-365): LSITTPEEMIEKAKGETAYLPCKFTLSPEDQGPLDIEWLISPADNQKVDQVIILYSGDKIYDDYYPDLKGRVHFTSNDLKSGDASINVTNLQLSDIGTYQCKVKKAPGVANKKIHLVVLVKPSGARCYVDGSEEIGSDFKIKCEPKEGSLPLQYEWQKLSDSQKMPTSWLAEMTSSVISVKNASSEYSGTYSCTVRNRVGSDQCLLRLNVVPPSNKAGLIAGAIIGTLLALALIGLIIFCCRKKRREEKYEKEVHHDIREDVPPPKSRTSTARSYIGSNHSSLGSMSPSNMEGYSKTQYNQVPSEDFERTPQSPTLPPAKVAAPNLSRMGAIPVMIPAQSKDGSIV

Sequence of CD46 (human) (P15529 35-392): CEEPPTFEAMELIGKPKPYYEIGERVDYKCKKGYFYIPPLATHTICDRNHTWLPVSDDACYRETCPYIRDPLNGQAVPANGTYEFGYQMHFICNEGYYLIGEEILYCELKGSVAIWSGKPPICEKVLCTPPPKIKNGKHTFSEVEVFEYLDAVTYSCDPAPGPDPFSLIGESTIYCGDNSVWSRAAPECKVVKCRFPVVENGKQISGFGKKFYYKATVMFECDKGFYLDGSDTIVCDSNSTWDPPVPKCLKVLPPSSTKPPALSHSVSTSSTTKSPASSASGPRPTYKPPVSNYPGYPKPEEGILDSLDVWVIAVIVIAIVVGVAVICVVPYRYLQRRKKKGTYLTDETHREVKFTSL

Substance | Kd (CD46 (human)) | Kd [1]
HAdV-B11 virion (complex) | 0.0048 nM | –
HAdV-D26 virion (complex) | – | 0.076 nM
HAdV-D37 virion (complex) | 0.1 nM | –
HAdV-D39 virion (complex) | 0.1 nM | –
